Reference: US20220213196A1 (published 2022)

Molecular target: T1, MAGEA3 peptide on HLA-A*01:01 (human)
T1 peptide: EVDPIGHLY
Assay: multimer staining

binding result: recognises
B1:  (TCR, V domains shown)
Valpha: KQEVTQIPAALSVPEGENLVLNCSFTDSAIYNLQWFRQDPGKGLTSLLLIQSSQREQTSGRLNASLDKSSGRSTLYIAASQPGDSATYLCAVDNYGQNFVFGPGTRLSVLP
Vbeta: RPQVTQNPRYLITVTGKKLTVTCSQNMNHEYMSWYRQDPGLGLRQIYYSMNVEVTDKGDVPEGYKVSRKEKRNFPLILESPSPNQTSLYFCASSTTGSSPLHFGNGTRLTVT
